In publication PMC10777020, “The N1 domain of the peroxisomal AAA-ATPase Pex6 is required for Pex15 binding and proper assembly with Pex1” (The Journal of Biological Chemistry, 2023):
Each block holds one molecule with its values, some of them ahead of it.

Experiments:
[1] = target: T1, Pex1/ΔN1-Pex6 (Saccharomyces cerevisiae, UniProt P24004+P33760); test: enzyme-coupled ATPase assay; format: biochemical; settings: 5 mM ATP, 30 °C
T1 construct: Pex1 with C-terminal FLAG; Pex6 lacking first 184 residues (N1 domain) with N-terminal His tag; heterohexamer
T1 sequence (P24004 1-1043): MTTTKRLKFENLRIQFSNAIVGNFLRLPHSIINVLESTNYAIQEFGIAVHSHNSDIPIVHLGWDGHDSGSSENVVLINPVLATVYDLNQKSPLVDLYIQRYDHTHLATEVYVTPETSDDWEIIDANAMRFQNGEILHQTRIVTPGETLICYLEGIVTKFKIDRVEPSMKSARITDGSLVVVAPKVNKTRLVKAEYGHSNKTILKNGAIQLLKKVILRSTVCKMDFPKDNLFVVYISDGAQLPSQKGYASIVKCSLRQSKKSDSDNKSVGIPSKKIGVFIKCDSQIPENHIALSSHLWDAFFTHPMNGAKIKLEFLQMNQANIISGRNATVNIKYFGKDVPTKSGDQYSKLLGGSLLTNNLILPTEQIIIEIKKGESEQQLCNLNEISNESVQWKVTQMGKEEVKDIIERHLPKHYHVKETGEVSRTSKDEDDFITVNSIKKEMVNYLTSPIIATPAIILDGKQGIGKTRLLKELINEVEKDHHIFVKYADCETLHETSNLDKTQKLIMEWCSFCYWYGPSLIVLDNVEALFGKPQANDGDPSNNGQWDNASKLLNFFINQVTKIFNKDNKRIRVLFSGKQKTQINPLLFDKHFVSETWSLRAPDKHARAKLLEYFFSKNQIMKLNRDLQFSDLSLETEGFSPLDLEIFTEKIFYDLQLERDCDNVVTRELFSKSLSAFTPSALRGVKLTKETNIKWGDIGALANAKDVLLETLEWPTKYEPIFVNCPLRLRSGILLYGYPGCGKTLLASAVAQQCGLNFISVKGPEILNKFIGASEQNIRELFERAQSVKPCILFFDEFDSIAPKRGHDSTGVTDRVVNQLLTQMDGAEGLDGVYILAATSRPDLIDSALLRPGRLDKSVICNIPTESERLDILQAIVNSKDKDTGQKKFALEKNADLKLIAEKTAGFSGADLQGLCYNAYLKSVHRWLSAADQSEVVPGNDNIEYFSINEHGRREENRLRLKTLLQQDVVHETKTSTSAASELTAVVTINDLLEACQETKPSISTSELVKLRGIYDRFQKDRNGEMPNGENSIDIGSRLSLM
T1 sequence (P33760 185-1030): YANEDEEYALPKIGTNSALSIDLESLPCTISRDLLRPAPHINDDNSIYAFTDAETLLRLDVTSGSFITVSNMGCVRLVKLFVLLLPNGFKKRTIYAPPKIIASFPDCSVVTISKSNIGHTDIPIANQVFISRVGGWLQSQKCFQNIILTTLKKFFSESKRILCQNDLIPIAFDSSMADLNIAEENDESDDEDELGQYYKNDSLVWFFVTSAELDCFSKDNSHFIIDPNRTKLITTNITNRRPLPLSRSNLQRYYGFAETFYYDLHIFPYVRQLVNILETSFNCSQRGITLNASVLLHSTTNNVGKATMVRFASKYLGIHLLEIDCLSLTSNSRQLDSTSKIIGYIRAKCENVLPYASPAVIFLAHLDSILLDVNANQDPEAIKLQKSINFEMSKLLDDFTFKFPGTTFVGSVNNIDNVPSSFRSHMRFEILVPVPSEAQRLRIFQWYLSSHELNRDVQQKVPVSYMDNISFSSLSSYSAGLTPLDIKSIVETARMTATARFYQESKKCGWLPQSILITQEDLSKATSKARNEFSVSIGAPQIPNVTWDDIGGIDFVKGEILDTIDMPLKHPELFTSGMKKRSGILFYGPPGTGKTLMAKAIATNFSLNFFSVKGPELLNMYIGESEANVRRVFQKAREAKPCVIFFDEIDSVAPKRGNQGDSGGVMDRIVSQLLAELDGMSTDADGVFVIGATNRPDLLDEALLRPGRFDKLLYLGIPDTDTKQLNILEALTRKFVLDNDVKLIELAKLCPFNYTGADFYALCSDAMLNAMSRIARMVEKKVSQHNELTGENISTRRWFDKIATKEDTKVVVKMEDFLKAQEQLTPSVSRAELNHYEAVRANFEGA

[2] = target: T2, Pex1/Pex6 (Pex1-FLAG/His-Pex6) (Saccharomyces cerevisiae, UniProt P24004+P33760); test: cryo-EM structure, ~[…] Å D1, ~[…]-9 Å D2; format: binding; settings: 1 mM ATP, pH 7.6, 10 mM MgCl2, with mEOS3.2-Pex15 1-309 (no substrate density in pore); ATP modelled in all D1 sites and four D2 sites
T2 construct: heterohexamer of alternating Pex1 and Pex6
T2 sequence (P24004 1-1043): T1 sequence (P24004 1-1043)
T2 sequence (P33760 1-1030): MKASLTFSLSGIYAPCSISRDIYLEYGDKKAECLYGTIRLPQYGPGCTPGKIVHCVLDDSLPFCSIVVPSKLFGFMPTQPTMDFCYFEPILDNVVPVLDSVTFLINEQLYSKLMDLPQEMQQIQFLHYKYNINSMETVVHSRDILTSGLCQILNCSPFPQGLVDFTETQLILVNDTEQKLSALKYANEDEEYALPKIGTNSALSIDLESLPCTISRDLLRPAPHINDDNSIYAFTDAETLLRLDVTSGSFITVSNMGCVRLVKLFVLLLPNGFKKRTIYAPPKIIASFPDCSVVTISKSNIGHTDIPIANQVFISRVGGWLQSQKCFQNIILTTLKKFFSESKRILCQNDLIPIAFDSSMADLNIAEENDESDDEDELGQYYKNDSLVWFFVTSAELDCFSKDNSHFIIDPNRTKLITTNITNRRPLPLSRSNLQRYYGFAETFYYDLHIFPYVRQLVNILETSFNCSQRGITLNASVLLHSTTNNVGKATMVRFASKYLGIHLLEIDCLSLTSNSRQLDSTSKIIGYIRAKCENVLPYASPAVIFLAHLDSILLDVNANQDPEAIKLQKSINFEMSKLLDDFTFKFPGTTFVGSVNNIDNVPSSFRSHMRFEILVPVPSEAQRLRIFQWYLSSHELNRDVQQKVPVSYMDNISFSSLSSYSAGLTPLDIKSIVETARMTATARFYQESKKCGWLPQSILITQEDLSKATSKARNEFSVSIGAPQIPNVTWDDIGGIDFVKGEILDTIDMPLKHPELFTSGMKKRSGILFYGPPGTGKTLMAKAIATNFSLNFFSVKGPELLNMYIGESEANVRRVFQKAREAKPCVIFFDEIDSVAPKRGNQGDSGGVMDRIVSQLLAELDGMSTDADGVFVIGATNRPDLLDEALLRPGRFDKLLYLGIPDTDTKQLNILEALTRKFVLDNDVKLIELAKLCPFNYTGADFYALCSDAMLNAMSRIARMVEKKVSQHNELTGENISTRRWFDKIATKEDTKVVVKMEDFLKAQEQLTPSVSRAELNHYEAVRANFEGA

[3] = system: T3, Nc1ncnc2c1ncn2[C@@H]1O[C@H](COP(=O)(O)OP(=O)(O)OP(=O)(O)O)[C@@H](O)[C@H]1O; test: purified protein; format: biochemical, Saccharomyces cerevisiae; settings: 30 °C, ATP varied, hydrolysis in D2 ring
T3 construct: heterohexamer of alternating Pex1 and Pex6

[4] = target: T4, His-Pex6 (S. cerevisiae, UniProt P33760 1-1030); test: cross-linking; photocrosslinking by AzF in Pex1 as above, in the absence or presence of 10 uM Pex15 1-309, Pex15 1-266 or Pex15 43-309; His-Pex6 stood in the complex with the Pex1 variant; settings: both partners purified
T4 construct: Pex6, AAA-ATPase of S. cerevisiae; no limits stated for the construct; In all experiments it stood in a complex with Pex1-FLAG or a Pex1 variant; also called ScPex6; His-tagged Pex6; source: E. coli BL21*(DE3), co-expressed with Pex1-FLAG or its variants; in lysate, then purified (Ni-NTA, anti-FLAG, Superose6 Increase); not shown: His, N-terminal, kept
T4 sequence: T2 sequence (P33760 1-1030)

Molecule: Nc1ncnc2c1ncn2[C@@H]1O[C@H](COP(=O)(O)OP(=O)(O)OP(=O)(O)O)[C@@H](O)[C@H]1O [ATP]
enzyme-coupled ATPase assay [1]: Pex1/ΔN1-Pex6 motor had ATPase activity comparable to WT Pex1/Pex6 | cryo-EM structure, ~4 Å D1, ~5-9 Å D2 [2]: we find density for nucleotide in all the D1 ATPase domains, which we modeled as ATP

Molecule: Pex1/Pex6 (Pex1-FLAG/His-Pex6) (Saccharomyces cerevisiae S288C)
Km [3]: 230 µM

Molecule: Pex1/Pex6 (Pex1-FLAG/His-Pex6) (Saccharomyces cerevisiae S288C; P24004:DEL941-967)
Km [3]: 1030 µM

binding result [4]: binds
B1: Pex15 1-309 (cytosolic domain of Pex15) (domain or fragment, S. cerevisiae, UniProt Q08215 1-309, looked up)
chain: MAASEIMNNLPMHSLDSSLRDLLNDDLFIESDESTKSVNDQRSEVFQECVNLFIKRDIKDCLEKMSEVGFIDITVFKSNPMILDLFVSACDIMPSFTKLGLTLQSEILNIFTLDTPQCIETRKIILGDLSKLLVINKFFRCCIKVIQFNLTDHTEQEEKTLELESIMSDFIFVYITKMRTTIDVVGLQELIEIFIFQVKVKLHHKKPSPNMYWALCKTLPKLSPTLKGLYLSKDVSIEDAILNSIDNKIQKDKAKSKGKQRGVKQKIHHFHEPMLHNSSEEQVKVEDAFNQRTSTDSRLQSTGTAPRKK
notes: also called Pex15's cytosolic domain

binding result [4]: binds
B2: Pex15 1-266 (domain or fragment, S. cerevisiae, UniProt Q08215 1-266, looked up)
chain: MAASEIMNNLPMHSLDSSLRDLLNDDLFIESDESTKSVNDQRSEVFQECVNLFIKRDIKDCLEKMSEVGFIDITVFKSNPMILDLFVSACDIMPSFTKLGLTLQSEILNIFTLDTPQCIETRKIILGDLSKLLVINKFFRCCIKVIQFNLTDHTEQEEKTLELESIMSDFIFVYITKMRTTIDVVGLQELIEIFIFQVKVKLHHKKPSPNMYWALCKTLPKLSPTLKGLYLSKDVSIEDAILNSIDNKIQKDKAKSKGKQRGVKQK
